Data reported in patent publication US20240058465A1 (SUTRO BIOPHARMA, published 2024).
Numbering of substitutions follows the chain as printed.

B1: SRP2194-B04 (antibody, IgG1, V domains shown)
VH: EVQLVESGGGLVQPGGSLRLSCAASGFNITGYHIHWVRQAPGKGLEWVGYISPLAGNTYHADSVKGRFTISADTSKNTAYLQMNSLRAEDTAVYYCTRDSRRYVRPLDYWGQGTLVTVSS
VL: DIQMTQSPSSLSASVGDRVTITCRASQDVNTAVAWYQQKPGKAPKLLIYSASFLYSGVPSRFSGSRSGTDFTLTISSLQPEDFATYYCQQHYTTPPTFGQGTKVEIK
notes: His/FLAG-tagged IgG1, cell-free; also called Antibody 129
B2: SRP2194-A02 (antibody, IgG1, V domains shown)
VH: B1 VH with H33Y, T97A, L107F
VL: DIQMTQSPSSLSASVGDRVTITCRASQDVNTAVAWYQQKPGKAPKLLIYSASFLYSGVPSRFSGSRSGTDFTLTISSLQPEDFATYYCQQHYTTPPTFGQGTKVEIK
notes: His/FLAG-tagged IgG1, cell-free
B3: SRP2196-B08 (antibody, V domains shown)
VH: B1 VH with H33Y, Y50Q, L54N, A55S, N57Y, H60L, T97A, P106G, L107W
VL: QAVVTQESALTTSPGETVTLTCRSSTGAVTTSNYANWVQEKPDHLFTGLIGGTNKRAPGVPARFSGSLIGDKAALTITGAQTEDEAIYFCALWYSNLWVFGGGTKLTVL
notes: His/FLAG-tagged IgG1
B4: SRP2196-A11 (antibody, V domains shown)
VH: B1 VH with H33Y, Y50Q, L54N, A55S, N57T, H60D, T97A, P106G, L107W
VL: B3 VL
notes: His/FLAG-tagged IgG1
B5: SRP2196-A05 (antibody, V domains shown)
VH: B1 VH with G31N, H33Y, L54N, A55S, N57A, H60Q, T97A, P106S, L107W
VL: B3 VL
notes: His/FLAG-tagged IgG1
B6: SRP2196-A07 (antibody, V domains shown)
VH: B1 VH with H33Y, Y50Q, L54N, A55S, N57S, H60Y, N84S, T97A, P106G, L107W
VL: B3 VL
notes: His/FLAG-tagged IgG1
B7: SRP2196-B01 (antibody, V domains shown)
VH: B1 VH with H33Y, Y50Q, L54N, A55S, N57Y, H60Y, A79T, T97A, P106S, L107W
VL: B3 VL
notes: His/FLAG-tagged IgG1
B8: SRP2196-B10 (antibody, V domains shown)
VH: EVQLVESGGGLVQPGGSLRLSCAASGFNITGYYIHWVRQAPGKGLEWVGSITPLSGATSKADSVKGRFTISADTSKNTAYLQMNSLRAEDTAVYYCARDSRRYIRSWDYWGQGTLVTVSS
VL: B3 VL
notes: His/FLAG-tagged IgG1; also called Antibody 167
B9: SRP2196-B11 (antibody, V domains shown)
VH: B8 VH with K43R, S50Q, T52S, L54N, A57Y, S59Y, K60Y
VL: B3 VL
notes: His/FLAG-tagged IgG1
B10: SRP2196-C03 (antibody, V domains shown)
VH: B8 VH with S50Q, T52S, L54N, A57S, S59Y, K60S, N84S, I104V, R105L
VL: B3 VL
notes: His/FLAG-tagged IgG1
B11: SRP2196-B09 (antibody, V domains shown)
VH: B8 VH with G15E, G31E, S50Y, T52S, L54N, A57S, S59Y, K60Y, I104V
VL: B3 VL
notes: His/FLAG-tagged IgG1; also called Antibody 160
B12: SRP2196-A06 (antibody, V domains shown)
VH: B8 VH with S50Q, T52S, L54N, A57S, S59H, K60Q, E89G, I104V, S106G
VL: B3 VL
notes: His/FLAG-tagged IgG1
B13: SRP2196-A03 (antibody, V domains shown)
VH: B1 VH with G31Q, L54N, A55S, N57S, Y59H, H60E, T97A, P106G, L107W
VL: B3 VL
notes: His/FLAG-tagged IgG1; also called Antibody 150
B14: SRP2196-C04 (antibody, V domains shown)
VH: B8 VH with S50F, T52A, A57S, S59H, K60N, D99E, I104V, R105N, S106P
VL: B3 VL
notes: His/FLAG-tagged IgG1; also called Antibody 162
B15: SRP2196-A04 (antibody, V domains shown)
VH: EVQLVESGGGLVQPGGSLRLSCAASGFNISPYYIHWVRQAPGKGLEWVGQIYPISGHTYQADSVKGRFTISADTSKNTAYLQMNSLRAEDTAVYYCARESRRYVGPFGYWGQGTLVTVSS
VL: B3 VL
notes: His/FLAG-tagged IgG1
B16: SRP2196-A10 (antibody, V domains shown)
VH: B8 VH with S50Y, T52S, L54N, S59H, K60Y, T74I, Y94H, I104V
VL: B3 VL
notes: His/FLAG-tagged IgG1
B17: SRP2196-B06 (antibody, V domains shown)
VH: B8 VH with S50Q, T52S, L54N, A57S, S59Y, K60S, I104V, R105L
VL: B3 VL
notes: His/FLAG-tagged IgG1
B18: SRP2196-C02 (antibody, V domains shown)
VH: B1 VH with Y50F, L54N, A55S, N57W, H60S, T97A, L107F
VL: B3 VL
notes: His/FLAG-tagged IgG1
B19: SRP2196-B03 (antibody, V domains shown)
VH: B1 VH with V12A, H33Y, L54N, A55S, N57A, Y59H, H60Y, T97A, L107F
VL: B3 VL
notes: His/FLAG-tagged IgG1
B20: SRP2196-B02 (antibody, V domains shown)
VH: B8 VH with G31Q, S50Y, T52S, L54N, A57Q, S59Y, K60D, I104V
VL: B3 VL
notes: His/FLAG-tagged IgG1
B21: SRP2196-C01 (antibody, V domains shown)
VH: B8 VH with T30I
VL: B3 VL
notes: His/FLAG-tagged IgG1
B22: SRP2196-B04 (antibody, V domains shown)
VH: B8 VH with G31E, S50Y, T52S, L54N, S59Y, K60Q, I104V, S106G
VL: B3 VL
notes: His/FLAG-tagged IgG1
B23: SRP2196-A08 (antibody, V domains shown)
VH: B8 VH with S50Y, T52S, L54N, A57S, S59Y, K76R, I104V
VL: B3 VL
notes: His/FLAG-tagged IgG1
B24: SRP2196-A09 (antibody, V domains shown)
VH: B8 VH with S50Q, T52S, L54N, S59H, K60Y
VL: B3 VL
notes: His/FLAG-tagged IgG1

Molecular target: T1, human ROR1 Frizzled domain (hROR1-Fz) (human, UniProt Q01973 165-305)
T1 construct: Acro Biosystems, made in HEK293
Assay: SPR Biacore, IgG on anti-Fc, ROR1-Fz analyte
Method: Anti-Fc polyclonal antibodies were immobilized onto a CMS chip (GE Life Sciences) using amine coupling chemistry (from Amine Coupling Kit, GE Life Sciences). The immobilization steps were carried out at a flow rate of 25 μL/min in 1×HBS-EP+buffer (GE Life Sciences; 10× Stock diluted before use). The sensor surfaces were activated for 7 min with a mixture of NHS (0.05 M) and EDC (0.2 M). The Anti-Fc antibodies were injected over all 4 flow cells at a concentration of 25 ug/ml in 10 mM sodium acetate, pH 4.5, for 7 min. Ethanolamine (1 M, pH 8.5) was injected for 7 min to block any remaining activated groups.
Off-rate and kinetic binding experiments were performed at 25° C. using 1×HBS-EP+buffer. Test and control antibodies were injected over the anti-Fc surface at concentrations of 5-10 μg/mL for 12 seconds at a flow rate of 10 μL/min on flow cells 2, 3 and 4, followed by a buffer wash for 30 seconds at the same flow rate. […] After capturing ligand (antibody) on the anti-Fc surface, the analyte (hROR1, Fz or Kr domains, Acro Biosystems, Delaware) was bound for 180 seconds, followed by a 600 second dissociation phase at a flow rate of 50 μL/min. Between each ligand capture and analyte binding cycle, regeneration was carried out using 2 injections of 10 mM Glycine pH 2.0 for 30 seconds at 30 μL/min, followed by a 30 second buffer wash step.

Row | Kd [nM] | koff [s⁻¹] | kon [M⁻¹ s⁻¹] | Binder
1 | 1.44 | 0.000392 | 271000 | B1
2 | 1.39 | 0.000429 | 308000 | B2
3 | 3.13 | 0.000488 | 156000 | B3
4 | 4.16 | 0.000792 | 191000 | B4
5 | 3.9 | 0.000682 | 175000 | B5
6 | 3.44 | 0.00064 | 186000 | B6
7 | 3.06 | 0.000401 | 131000 | B7
8 | 2.61 | 0.000334 | 128000 | B8
9 | 4.36 | 0.000597 | 137000 | B9
10 | 3.23 | 0.000461 | 143000 | B10
11 | 3.28 | 0.000427 | 130000 | B11
12 | 3.82 | 0.00069 | 180000 | B12
13 | 1.63 | 0.000275 | 169000 | B13
14 | 5.35 | 0.000704 | 131000 | B14
15 | 2.46 | 0.000343 | 139000 | B15
16 | 2.78 | 0.000479 | 172000 | B16
17 | 2.98 | 0.000423 | 142000 | B17
18 | 3.02 | 0.00036 | 119000 | B18
19 | 7.64 | 0.000945 | 124000 | B19
20 | 1.39 | 0.000227 | 163000 | B20
21 | 3.66 | 0.000457 | 125000 | B21
22 | 2.78 | 0.000352 | 127000 | B22
23 | 4.26 | 0.00078 | 183000 | B23
24 | 3.79 | 0.000568 | 150000 | B24

Molecular target: T2, human ROR1 (hROR1) (human, UniProt Q01973 30-937)
T2 construct: On HCT116-hROR1 transfectants, Mino cells or Ntera-2 cells, as the assay of each row says; also called receptor tyrosine kinase like orphan receptor 1
Assay: flow cytometry, HCT116-hROR1 cells
Method: A mix of ROR1 positive and negative cells was prepared as follows. Ror1 negative cells were washed 2× in PBS then incubated in PBS containing 1 nM CellTrace™ Oregon Green488® (Life Technologies) at 37° C. for 30 minutes. Cells were then washed 2× with RPMI w/10% fetal calf serum (or FCS), washed 2× with FACS buffer (PBS+0.5% BSA), suspended thoroughly in ice-cold FACS buffer at a final concentration of 4×10^6 cells/ml and kept on ice. ROR1 positive cells were washed 2× in PBS and suspended with ice-cold FACS buffer at 4×10^6 cells/ml. ROR1 positive and negative cells were then mixed to obtain a 1-1 cell suspension and seeded at 50 μl per well on 96 well polypropylene plates. 50 μl of 6-12 point dilutions of anti-ROR1 variants starting from concentrations of ˜100-200 nM antibody was dispensed using BioMekFX (Beckman Coulter) into each well. Cells were then incubated on ice for 1 hr, washed with FACS buffer and incubated for 1 hr on ice with 50 μl FACS buffer containing 2.5 μg/ml Alexa647-conjugated Goat Anti-Human IgG dispensed using BioMekFX (Beckman Coulter). Cells were then washed 2× with FACS buffer and fixed for 10 minutes in 200 μl PBS with 2% PFA prior to fluorescence detection. Samples were acquired using a Beckton Dickinson LSRII FACS. Mean Fluorescence Intensity of ROR1 antibody binding was analyzed using FlowJo® software (Tree Star, Inc.).

Row | Bmax (MFI) | Kd [nM] | Binder
25 | 9300 | 0.2 | B1
26 | 9220 | 0.14 | B2
27 | 14400 | 0.2 | B3
28 | 14000 | < 0.05 | B4
29 | 14800 | 0.3 | B5
30 | 14100 | 0.2 | B6
31 | 15300 | 0.3 | B7
32 | 14700 | 0.3 | B8
33 | 14700 | 0.2 | B9
34 | 15000 | 0.4 | B10
35 | 15000 | 0.6 | B11
36 | 14600 | 0.2 | B12
37 | 15400 | 0.3 | B13
38 | 13800 | 0.5 | B14
39 | 14200 | 0.1 | B15
40 | 14400 | 0.3 | B16
41 | 14800 | 0.4 | B17
42 | 15300 | 0.6 | B18
43 | 15600 | 0.6 | B19
44 | 14900 | 0.3 | B20
45 | 15700 | 0.3 | B21
46 | 14400 | 0.5 | B22
47 | 13900 | 0.2 | B23
48 | 14600 | 0.2 | B24
